{"source": "paper PMC3288673", "binders": {"B1": {"name": "RevDR2 (dsDNA)", "DNA 1": "AGCTCCAACTAGGTCACTAGGTCAAAGGGA", "DNA 2": "TCGATCCCTTTGACCTAGTGACCTAGTTGG"}}, "target": "T1, Rev-Erbα (UniProt P20393 1-614)", "T1 sequence": "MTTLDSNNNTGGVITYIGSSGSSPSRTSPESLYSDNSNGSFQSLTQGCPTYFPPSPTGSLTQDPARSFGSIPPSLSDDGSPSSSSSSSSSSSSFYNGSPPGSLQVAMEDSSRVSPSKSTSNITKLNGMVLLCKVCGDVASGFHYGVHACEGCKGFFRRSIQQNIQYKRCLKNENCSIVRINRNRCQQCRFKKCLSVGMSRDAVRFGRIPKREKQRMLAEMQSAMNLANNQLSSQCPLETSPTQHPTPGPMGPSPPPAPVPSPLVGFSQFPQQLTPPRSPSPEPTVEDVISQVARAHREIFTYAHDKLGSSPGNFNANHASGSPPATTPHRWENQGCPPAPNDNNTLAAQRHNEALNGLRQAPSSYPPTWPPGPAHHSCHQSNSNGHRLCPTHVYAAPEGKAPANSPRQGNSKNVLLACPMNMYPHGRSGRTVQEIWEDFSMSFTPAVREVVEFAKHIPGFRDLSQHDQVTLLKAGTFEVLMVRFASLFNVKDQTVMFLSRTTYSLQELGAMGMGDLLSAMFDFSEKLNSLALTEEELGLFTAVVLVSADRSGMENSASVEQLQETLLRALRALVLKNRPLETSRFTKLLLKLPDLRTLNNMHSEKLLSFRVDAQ", "assay": "EMSA"}
{"binder": "B1", "values": [{"measurement": "binding result", "value": "binds"}]}
